According to paper PMC12093947, “Cobalt modulates methanol turnover of the alcohol dehydrogenase in Desulfofundulus kuznetsovii strain TPOSR” (Applied and Environmental Microbiology, 2025):

System: NC(=O)c1ccc[n+]([C@@H]2O[C@H](COP(=O)(O)OP(=O)(O)OC[C@H]3O[C@@H](n4cnc5c(N)ncnc54)[C@H](O)[C@@H]3O)[C@@H](O)[C@H]2O)c1
Assay: purified protein
Conditions: without added Co, methanol 0.75-3000 mM, 50 mM Bis-tris propane, 55 °C, rapid-equilibrium, NAD+ binds first, brackets 95% confidence interval, varied: cofactor

TPOSR Adh1 (Desulfofundulus kuznetsovii)
Km: 0.550 [0.26, 1.3] mM | kcat: 1.76 s⁻¹
